Measurements from US8741840B2, “BMP-7 for use in treating neointimal hyperplasia” (Washington University, priority 2008, dated 2014).

Legend:
[1] = system: LDLR−/− mice with CKD on high fat diet; assay: Chemical quantitation of aortic calcium in high fat fed LDLR-/- mice with CKD (treatment study, weeks 22-28); assay type: in vivo, mouse; conditions: therapy weeks 22-28 post natal; BMP-7 10 μg/kg IP weekly; CaCO3 or LaCO3 3% in diet (FIG. 1A, FIG. 2)
Excerpt: At 10 weeks, animals were either continued on this chow diet or initiated on a high cholesterol (0.15%) diet containing 42% calories as fat [Harlan Teklad, Madison Wis., Product No. TD88137].
Induction of CKD: A two-step procedure was utilized to create uremia as previously described. (Davies 2003; Lund, 2004)^19;21 Saphenous vein blood samples were taken 1 week following the second surgery to assess baseline post-surgical renal function. Animals were sacrificed under anesthesia 28 weeks post natal. At the time of sacrifice, blood was taken by intracardiac stab, and the heart and aorta dissected en bloc. The BMP-7 treated group received intraperitoneal injection of BMP-7 10 μg/kg dry weight once weekly in 100 μl vehicle [mannitol (5% w/v), NaAcetate buffer (20 mM, pH 4.0-4.5), sterile water].
Group 1 were LDLR−/− mice on the high fat diet sacrificed at 22 weeks. Group 2 were LDLR−/− mice with CKD fed the high fat diet and treated weekly from 22 to 28 weeks with vehicle IP. […]
Chemical Calcification Quantitation: similar to our previous experimental plans (Davies 2003; Davies 2005).^19;20 Aorta and hearts were dissected at sacrifice, and all extraneous tissue removed by blunt dissection under a dissecting microscope. […]
Mice were treated with 10 mcg/kg BMP-7 injected intraperitoneally once weekly. […] The data are expressed as group mean±SEM, n=4-7.
The data are expressed as group mean±SEM, n=4-5.

[2] = Blood tests: serum biochemical parameters in the various groups of animals; assay type: in vivo, mouse
Experimental: Animals were sacrificed under anesthesia 28 weeks post natal. At the time of sacrifice, blood was taken by intracardiac stab, and the heart and aorta dissected en bloc. The BMP-7 treated group received intraperitoneal injection of BMP-7 10 μg/kg dry weight once weekly in 100 μl vehicle [mannitol (5% w/v), NaAcetate buffer (20 mM, pH 4.0-4.5), sterile water].
Animals were allocated to one of seven CKD high fat fed groups after the second surgery: Other control Groups included LDLR−/− sham operated mice on chow diet, and LDLR−/− mice with CKD on chow diet. C57B16 WT mice fed chow served as the normal benchmark source. […] Group 1 were LDLR−/− mice on the high fat diet sacrificed at 22 weeks. Group 2 were LDLR−/− mice with CKD fed the high fat diet and treated weekly from 22 to 28 weeks with vehicle IP. […] Group 3 was the first treatment group. These were LDLR−/− mice with CKD on high fat diet that received BMP-7 treatment (10 μg/kg IP weekly). Group 4 were LDLR−/− mice with CKD on high fat diet treated with sevelamer CO3 1%. Group 5 were LDLR−/− mice with CKD on high fat diet treated with sevelamer CO3 3%. […] Once the mice were randomized into groups, they were allowed to develop calcification from weeks 14 through weeks 22 post natal. Therapy was initiated at 23 weeks postnatal and continued until week 28 postnatal at which time the mice were examined.
Blood tests: Serum was analyzed on the day of blood draw for blood urea nitrogen [BUN], cholesterol, calcium and phosphate by standard laboratory methods. Before initiation of therapy, blood was obtained through saphenous vein. At the time of sacrifice, blood was obtained through intracardiac stab.

[3] = system: LDLR−/− high fat fed mice; assay: Histology of proximal aorta (alizarin red): calcified atherosclerotic plaques; assay type: in vivo, mouse
Excerpt: Tissue Preparation: Resected specimens were flash frozen in liquid nitrogen, then divided as follows: the heart, ascending aorta and aortic arch were separated from the descending aorta, and bisected sagittally through the aortic outflow tract. The descending aorta was bisected coronally, approximately halfway along its length. In order to visualize calcification in the tissue sections, Slices (5 μm thick) were cut and stained with von Kossa and Trap staining.
Additional mice were enrolled to the study for qualitative analysis of aortas to quantitate the effects of the treatments, because aortas of the experimental animals were destroyed by the technique of quantifying the aortic calcium content. Vascular calcification was largely aortic atherosclerotic plaque associated (FIG. 3), and punctate calcifications in the tunica media were observed. Panel A: Large lipid laden plaque (between arrows) in proximal aorta of a sham-operated high fat fed LDLR−/− mouse. Thick arrows identify focal calcifications in the base of the plaque. Panel B: A large calcified plaque (between arrows) in the proximal aorta of a CKD high fat fed LDLR−/− mouse. Panel C: A large lipid laden plaque (between arrows) in the proximal aorta of a BMP-7 treated CKD high fat fed LDLR−/− mouse. The stain is alizarin red. Magnification is 400× in A-C.

hVSMC [4] = assay: RT-PCR of osteoblastic differentiation program genes in hVSMC; assay type: cell-based, human
Experimental: (§1) Cell Culture: Human adult aorta were obtained from seven cadaveric organ donors rejected because of atherosclerosis by Mid-America Transplant Services (St. Louis, Mo.) and enzymatically digested to obtain Human Smooth Muscle Cells (HSMC). Medial tissue was separated from the adventia and intima and digested with collagenase type I (Worthington, Lakewood, N.J.) 2 mg/ml for 1 hr, and washed with Hank's balanced salt solution (HBSS). Further digestion followed with collagenase type II 1 mg/ml (Worthington, Lakewood, N.J.) and elastase 0.25 mg/ml (Worthington, Lakewood, N.J.) for 4 hrs. Cell suspensions were washed twice with HBSS and cultured in T-75 flasks for three weeks in a 95%/5% air/CO2 humidified environment at 37° C. The growth medium used was DMEM containing […] glucose (high glucose), 10% fetal bovine serum (FBS, Atlas, Fort Collins, Colo.), 1 mM sodium pyruvate, 100 units/ml Penicillin and […] Streptomycin (Sigma, St Louis, Mo.). Cell purity was assessed by positive immunostaining for α-smooth muscle actin and calponin and for the absence of von Willebrand factor. In all experimental protocols, cells were seeded at 1×10^5 cells/well in six-well plates. Medium was changed on the first day and every third day thereafter. In all cases, cells used were between passages two and five (Table 3).
RT-PCR: RNA was extracted from cell cultures using RNeasy Mini Kits (Qiagen, Valencia, Calif.). Semi-quantitative RT-PCR was conducted using Roche 1st Strand cDNA Synthesis Kit (Indianapolis, Ind.) and PCR kit from Invitrogen (Grand Island, N.Y.) according to manufacturer's instructions using a two-step method. 1 μg of total RNA was reverse transcribed and random primers were added for 60 min at 42° C., prior to PCR. Forward and Reverse primers (Table 4) were added and the reactions subjected to PCR for 20-35 cycles. The number of cycles necessary to amplify cDNA but remain within the exponential amplification range was determined for each primer set. GAPDH was used as internal standard to assess loading. Genomic contamination was assessed by heat inactivation of the reverse transcriptase prior to RT-PCR. Primers were designed using Vector NTI soft ware (Invitrogen, Grand Island, N.Y.) and optimal conditions for each prime pairs were determined (Table 4). A Perkin-Elmer DNA Thermal Cycler was used to perform the reaction. Products were separated on a 2% agarose E-gel (Invitrogen, Grand Island, N.Y.), and visualized with ethidium bromide. The band intensity was analyzed first by scanning the gel on a Typhoon 9410 gel imager (Amersham Biosciences), quantified by using TotalLab software v2003.03 (Nonlinear Dynamics, Durham, N.C.) and normalized for loading by comparison to GAPGH. Negative controls were performed by inactivating the reverse transcriptase by boiling for 5 min prior to RT-PCR to insure that genomic DNA was not amplified.
Stimulation of osteoblastic differentiation through osterix induction. […] Osterix (E) was only weakly expressed in basal culture conditions. Phosphorus stimulated transcription of osterix (E). […] The data in A-E were normalized to the expression level in basal culture conditions and expressed as fold induction, mean±SEM, n=3. In: Principles of Bone Biology, edited by Bilezikian J P et al., New York, Academic Press, 1996, pp 51-67; Hoffmann H M et al., Proc. Nat. […]

hVSMC [5] = assay: RT-PCR of contractile VSMC markers in hVSMC; assay type: cell-based, human
Experimental: as §1
RT-PCR: RNA was extracted from cell cultures using RNeasy Mini Kits (Qiagen, Valencia, Calif.). Semi-quantitative RT-PCR was conducted using Roche 1st Strand cDNA Synthesis Kit (Indianapolis, Ind.) and PCR kit from Invitrogen (Grand Island, N.Y.) according to manufacturer's instructions using a two-step method. […] The number of cycles necessary to amplify cDNA but remain within the exponential amplification range was determined for each primer set. […] Genomic contamination was assessed by heat inactivation of the reverse transcriptase prior to RT-PCR. Primers were designed using Vector NTI soft ware (Invitrogen, Grand Island, N.Y.) and optimal conditions for each prime pairs were determined (Table 4). […] The band intensity was analyzed first by scanning the gel on a Typhoon 9410 gel imager (Amersham Biosciences), quantified by using TotalLab software v2003.03 (Nonlinear Dynamics, Durham, N.C.) and normalized for loading by comparison to GAPGH. […]
Expression of contractile VSMC markers in human cells. […] Calponin (Panel A), alpha smooth muscle actin (alpha SMA) (Panel B), heavy chain myosin (MHSCM) (Panel C), and SM22 alpha (Panel D) message levels detected by RT-PCR were low in hVSMC in basal conditions (open bars, Group A) and in the presence of high phosphorus media (black bars, Group B). […] The data in Panels A-D were normalized to the expression level in basal culture conditions and expressed as fold induction, mean±SEM, n=3. […]

B1: BMP-7: bone morphogenetic protein-7 (osteogenic protein-1), mineralization-countering morphogen; provided by Johnson and Johnson (protein, listed as Homo sapiens)
chain: STGSKQRSQNRSKTPKNQEALRMANVAENSSSDQRQACKKHELYVSFRDLGWQDWIIAPEGYAAYYCEGECAFPLNSYMNATNHAIVQTLVHFINPETVPKPCCAPTQLNAISVLYFDDSSNVILKKYRNMVVRACGCH
aortic calcium (vascular calcification) versus the 22 week start point [1]: significant reduction of aortic calcification compared to the 22 week start point
serum phosphorus / hyperphosphatemia ([2]; CKD high fat fed LDLR-/- mice, treated weeks 22-28 (FIG. 1B, Table 5)): reduced to normal levels
Phosphorus ([2]; serum, LDLR-/-, fat diet, CKD, 28 weeks post natal, BMP-7 10 μg/kg IP weekly or binder 3% in diet): 6.325 ± .471 mg/dL
size of the atherosclerotic lesions ([3]; proximal aorta (FIG. 3)): did not decrease the size of the atherosclerotic lesions
plaque associated calcium deposition ([3]; proximal aorta, alizarin red stain (FIG. 3)): diminished plaque associated calcium deposition
osteocalcin expression (hVSMC [4]; 2 mM phosphorus plus 10 ng/ml BMP-7 (FIG. 5A)): inhibited osterix and osteocalcin expression
BMP-2 expression (hVSMC [4]; 2 mM phosphorus plus 10 ng/ml BMP-7 (FIG. 5B)): failed to affect expression
RUNX2 expression (hVSMC [4]; 2 mM phosphorus plus 10 ng/ml BMP-7 (FIG. 5D)): failed to affect expression
osterix expression (hVSMC [4]; 2 mM phosphorus plus 10 ng/ml BMP-7 (FIG. 5E)): strongly inhibited osterix expression
Calponin message level (hVSMC [5]; high phosphorus media plus BMP-7 (FIG. 8A)): induced expression of each of the marker proteins
alpha smooth muscle actin (alpha SMA) message level (hVSMC [5]; high phosphorus media plus BMP-7 (FIG. 8B)): induced expression of each of the marker proteins
heavy chain myosin (MHSCM) message level (hVSMC [5]; high phosphorus media plus BMP-7 (FIG. 8C)): induced expression of each of the marker proteins
SM22 alpha message level (hVSMC [5]; high phosphorus media plus BMP-7 (FIG. 8D)): induced expression of each of the marker proteins
